Reference: the supplement of paper PMC9170038

Test system: MS2 coat protein
Test: apparent KD of MS2 coat protein; designed switch direction (-1 OFF switch, 1 ON switch): -1; higher = weaker reporter binding
Method in brief: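 RNA switches sharing common flanks were transcribed by stalled E. coli RNA polymerase on Illumina chips. A doubling series of SNAP-549-labelled MS2 coat protein, from 0.7 or 1.5 nM to 3 µM, was applied in Tris-HCl pH 7.5 buffer with KCl, MgCl2, BSA, DTT, tRNA and Tween-20. Each step lasted 0.8–1.5 h at the bottom of the series and 10–20 min at the top. Normalised cluster fluorescence was curve-fitted, giving apparent KD as the per-design median over clusters.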

[1] = Eterna round: R95, input ligand: FMN 200 uM
[2] = Eterna round: R95, input ligand: microRNA oligo, concentration not stated
[3] = Eterna round: R95, input ligand: none
[4] = input ligand: microRNA oligo, concentration not stated

Row | Sequence | apparent KD of MS2 coat protein (input ligand: FMN 200 uM) | apparent KD of MS2 coat protein (input ligand: none) | apparent KD of MS2 coat protein [1] | apparent KD of MS2 coat protein [2] | apparent KD of MS2 coat protein [3] | apparent KD of MS2 coat protein [4]
1 | AUCCAGCUAGGAUAUGCAGAGGCGAUCGCGGGCAUGUCCCAACAUGAGGAUCACCCAUGUAGAAGGAGCCAAGG [Eternabot (Original) Solution 48] (Eterna round: R97, puzzle: Exclusion 2) | 76.1 nM | 33.2 nM | – | – | – | –
2 | AGUAACUAUCACGAAAGUGAUAGUUACAACAAGUGAUAAACAUGAGGAUCACCCAUGUCCUCAUUUGCUCGUUUUAU [Sensor 3 - 15] (puzzle: Sensor v3, turn-off variant 2) | – | – | 328 nM | 646 nM | 323 nM | –
3 | CGCCCUCCGGUGAGGAUAUUGCCCACCAUGGUCGGCAAGAAGGCACUUGAGGAUCACCCAAGUAAAACAAAUAA [Beraus] (Eterna round: R97, puzzle: Brourd's mod of Exclusion 4) | 450 nM | 34.8 nM | – | – | – | –
4 | UAGCAAUGAGAUGGGUUCCACAUGAGGAUCACCCAUGUCCAAGCUCAGAGCUCGUCUUAUUUGAGAUACUUCACUGU [Eternabot (L2) Solution 50] (Eterna round: R97, puzzle: Sensor, turn-off variant 1) | 41.1 nM | 43.4 nM | – | – | – | –
5 | UGUUGUCGCGUAGGAUAUGAGGAUCACCCAUAUAGAGGAUAUGAAAAGAAGGCUCUGAGGAUCACCCAGAAGGACGGGACAACU [pwkr exNG2 2xF5 2xFMN.24] (Eterna round: R96, puzzle: Exclusion NG 2) | 1720 nM | 207 nM | – | – | – | 214 nM
6 | GUGGUACAUGAGGAUCACCCAUGUAAGGAUAUAGUCGGCUGGUGGUCGCGGGUGGUGGCUAGAAGGUGCGUGCG [-19.6, -18.2 kcal, A 19%] (Eterna round: R97, puzzle: Exclusion 1) | 101 nM | 114 nM | – | – | – | –
7 | GUCCUGUGGCAGGAUAUGAAAACGUAGCAACGGUCAGAAGGGCCAACAUGAGGAUCACCCAUGUACCCGUAUGG [Eternabot (L1) Solution 62] (Eterna round: R97, puzzle: Exclusion 6) | 24.3 nM | 19.9 nM | – | – | – | –
8 | GUGUACAGAGGAUAUGCUGGAAUCUAGCGAAGCUAGGUUCCACAUGAGGAUCACCCAUGUAGAAGGCUGUACAC [Dot plot directed A v4] (puzzle: Exclusion 2) | – | – | – | 19.4 nM | – | –
9 | GUUAGCGUAGGAUAUUAGUACAUGAACAUGAGGAUCACCCAUGUGAGGUGGGUCUUAGAUUAAGAAGGGCGAAGAA [EX5 #31] (Eterna round: R97, puzzle: Exclusion 5) | 387 nM | 447 nM | – | – | – | –
10 | AUAAUUUAAGUCAGGAUAUACCUAUGGAAACAUAGGUAGAAGGGACAUGAGGAUCACCCAUGUUUAUAUACAUA [Fiskers BMX 4 - 4] (puzzle: Brourd's mod of Exclusion 4) | – | – | 29.8 nM | 16.8 nM | 15.1 nM | –
11 | AAGUACCGUCACGAUAGUGAUGGUACAACAAGUGAAUGUACAUGAGGAUCACCCAUGUCCUCUUUUGCUCGUCUUAU [Sensor 3 - 92] (puzzle: Sensor v3, turn-off variant 2) | – | – | 151 nM | 30.9 nM | 184 nM | –
12 | UCACGGGACUAAGGAUAUACAUGAACUAUUAUUGUAGAAGGUAGAAUGUUAGAUUAUACACUAAACAUGAGGAUCACCCAUGUU [JR_ExcNG1_Sub094] (Eterna round: R96, puzzle: Exclusion NG 1) | – | – | – | – | – | 15.9 nM
13 | AUGGACGCAGGAUAUACAUGAGGAUCACCCAUGUGAGGUUGGUAAGUAGGAAGUGAAGGUAGAAGGGCGAGAGA [JR_Exclu3_Sub097] (puzzle: Exclusion 3) | – | – | 107 nM | 74.8 nM | 84.3 nM | –
14 | CCAAGCUUAUUCAUUAACAACAUGAGGAUCACCCAUGUAUAGGCAAUUAUGUCUGGGCUCUUUAGUGCUCGUCUUAU [Sensor-V1 #24] (Eterna round: R97, puzzle: Sensor, turn-off variant 1) | 18 nM | 19.8 nM | – | – | – | –
15 | AUUCCCACCCGAGGAUAUGCUUUAUUGCCGGGUGGUCAACAUGAGGAUCACCCAUGUAACUAAACGCAGAAGGCGGACAAUAAG [Ediner] (Eterna round: R96, puzzle: Exclusion NG 2) | 33.5 nM | 33.8 nM | – | – | – | 116 nM
16 | CCUCCCUGAGGAUAUCCACCCUCAUACAUGAGGAUCACCCAUGUUCAUCCGUGGGUACCCGGAGAAGGCAGAUUUC [Megrez-a] (Eterna round: R97, puzzle: Exclusion 5) | 41.9 nM | 33.1 nM | – | – | – | –
17 | UAAAUGUCAGGAUAUUGUUAAUUUAGUUGUUUGUAUUAGUUCGAGAAGGGACAUGAGGAUCACCCAUGUUAUUU [Ex4 #55] (Eterna round: R97, puzzle: Exclusion 4) | 33.6 nM | 31.9 nM | – | – | – | –

Row | Sequence | apparent KD of MS2 coat protein (input ligand: FMN 200 uM) | apparent KD of MS2 coat protein (input ligand: none) | apparent KD of MS2 coat protein [1] | apparent KD of MS2 coat protein [2] | apparent KD of MS2 coat protein [3] | apparent KD of MS2 coat protein [4]
18 | GCGUAUGAGCAGGAUAUCCGACGGGAAUCCAAAGGAGAAGGGCUCACAUGAGGAUCACCCAUGUGGUCCAAAAC [Agediat] (puzzle: Exclusion 6) | – | – | 109 nM | 24 nM | 27.3 nM | –
19 | CGCUAGUCAGGAUAUACGAACAUGUCAAAAGACGUGAAGGGACAUGAGGAUCACCCAUGUAGAAGGGACUAGCA [salish99_ex2_r3_014] (puzzle: Exclusion 2) | – | – | 147 nM | 22.5 nM | 24.9 nM | –
20 | CCUUACCGAGGAUAUACAUGAGGAUCACCCAUGUGAUCCUAAGGCUGAUCAAGCCUAUGUAGAAGGCGCAAAUC [salish99_ex3_r4_004] (Eterna round: R97, puzzle: Exclusion 3) | 160 nM | 130 nM | – | – | – | –
21 | CCGCUAAGAGCAGGAUAUGAGUAACAUGAGGAUCACCCAUGUGGACCAUGAAACAGUCCACGCAGUCAGAAGGGUUACGUGGCA [Eternabot solution 33] (Eterna round: R96, puzzle: Exclusion NG 2) | 38.8 nM | 34.3 nM | – | – | – | 23.1 nM
22 | GGAAGACAUGAGGAUCACCCAUGUAAGGAUAUCGAAGGUAUGAGAGGAAAGAGGUUAACGAGAAGGUACAGGUG [JR_Exclu1_Sub099] (puzzle: Exclusion 1) | – | – | 107 nM | 82 nM | 102 nM | –
23 | CCUCAGUAAGGAUAUCAGCUUAUGGAGUUGGUAAUGAGAGCUGAGAAGGUACAUGAGGAUCACCCAUGUUAGUU [JL Zatite mod 2] (puzzle: Exclusion 4) | – | – | – | 25.4 nM | – | –
24 | UAUAAUCGAGGAUAUACAUGAGGAUCACCCAUGUGUUGCCGCGUGAUGUGUUUGUCAGGUAGAAGGCGAUUAUA [Exclusion 3 - Mod of Jieux's Gilly Gone Silly 23 v.9] (puzzle: Exclusion 3) | – | – | – | 153 nM | – | –
25 | GCUGGUCGAGGAUAUGCAUAUACUGGAUACAGUGGAAGGUCACAUGAGGAUCACCCAUGUAGAAGGCGACUAGC [EX2 #37] (Eterna round: R97, puzzle: Exclusion 2) | 558 nM | 463 nM | – | – | – | –
26 | AGUAAGCUAGGAUAUGCUUUGGGAAAGCAAUCCUUCGAUAAACUUGAGGAUCACCCAAGUAGAAGGAGCUUACU [jl-ex2.4.50 ViennaUCT mod] (Eterna round: R97, puzzle: Exclusion 2) | 99.8 nM | 25.4 nM | – | – | – | –
27 | GGAAUGUAAGGAUAUCCGAAAGGAAGGAGAGGGAGAGGGAAGGAGAAGGUACAUGAGGAUCACCCAUGUAAGGG [AK-MS2ROC-r4-exclusion4-9] (Eterna round: R97, puzzle: Exclusion 4) | 88.5 nM | 69.2 nM | – | – | – | –
28 | AAGCAGGUGUAGGCCGUCUACAUGAGGAUCACCCAUGUGCCUCAUCCACCCGGCACCCAAUAAAGCGGGCGCCGGGC [Teququ] (Eterna round: R96, puzzle: Sensor v2, turn-off variant) | 113 nM | 103 nM | – | – | – | 65.3 nM
29 | AGAUCUUCCGUAAGGAUAUGUGUGAAACAGACGGCACAGAAGGUACAUGAGGAUCACCCAUGUUACGCCGCGUA [Eternabot (L1) Solution 85] (Eterna round: R97, puzzle: Brourd's mod of Exclusion 4) | 62.3 nM | 19.1 nM | – | – | – | –
30 | ACAAGAAUUUUGCUCGUAAAGUAGAAACGCGAGAGCGGGACAUGAGGAUCACCCAUGUAAAGGCAGUUGGUGGAGAU [JR_SV3TOV2_Sub028] (puzzle: Sensor v3, turn-off variant 2) | – | – | 39.7 nM | 53.2 nM | 48.7 nM | –
31 | UUAAAUCAUGUAGGAUAUGCGUGGCGAAGCUAUGCAGAAGGACAUGAGGAUCACCCAUGUUCAUCCGUCUGCGUACAGAUGGAA [JL Eng1 1.08 mod 1] (Eterna round: R96, puzzle: Exclusion NG 1) | 271 nM | 28.2 nM | – | – | – | 21.6 nM
32 | GAAAAGGUAGGAUAUACGAAAAAAAAGGGUAGAGAAAAAACACAUGAGGAUCACCCAUGUAGAAGGACCAAAAG [salish99_ex2_r3_023] (puzzle: Exclusion 2) | – | – | 84.8 nM | 27.1 nM | 26.7 nM | –
33 | AAGUACCGUCACGAUAGUGAUGGUACAACAAGCAAGUGAACAUGAGGAUCACCCAUGUCCUCAAUUGCUCGUCUUAU [Sensor 3 - 71] (puzzle: Sensor v3, turn-off variant 2) | – | – | 28.1 nM | 62.1 nM | 28.5 nM | –
34 | AGUAGAUCUACGCUUGCGUGGAUCUGCUAUGCAGGUGUCACAUGAGGAUCACCCAUGUCCUCAUUUGUUCGUCUUAU [JL turnoff v2 99.16] (puzzle: Sensor v3, turn-off variant 2) | – | – | 18.7 nM | 33.8 nM | 15.5 nM | –
